Patent US20210032331A1 (PHANES THERAPEUTICS, published 2021)

T1: human LAG-3(ECD)-mFc (human, UniProt P18627 23-450)
T1 construct: also called hLAG3-mFc; human LAG-3 extracellular domain (ECD) fused to mouse Fc; not shown: mouse Fc
T1 sequence: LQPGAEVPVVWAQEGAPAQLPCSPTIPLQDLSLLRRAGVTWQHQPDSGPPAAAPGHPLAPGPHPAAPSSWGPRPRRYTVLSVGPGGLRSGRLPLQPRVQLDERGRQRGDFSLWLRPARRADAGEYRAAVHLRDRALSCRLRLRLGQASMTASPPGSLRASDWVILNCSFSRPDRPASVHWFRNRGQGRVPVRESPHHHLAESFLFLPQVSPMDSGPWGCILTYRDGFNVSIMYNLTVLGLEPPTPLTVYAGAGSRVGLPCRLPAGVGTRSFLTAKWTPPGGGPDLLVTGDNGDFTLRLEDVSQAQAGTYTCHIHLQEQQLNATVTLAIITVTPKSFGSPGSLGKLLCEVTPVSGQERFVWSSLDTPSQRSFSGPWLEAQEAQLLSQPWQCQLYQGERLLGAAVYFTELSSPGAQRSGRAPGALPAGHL

B1: Q15 (peptide)
peptide: QPDSGPPAAAPGHPL
notes: also called peptide Q15
B2: 15-26 (peptide)
peptide: PHPAAPSSWGPR
notes: also called peptide 15-26
B3: 20-30 (peptide)
peptide: PSSWGPRPRRY
notes: also called peptide 20-30
B4: B12 (human IgG1 heavy chain and kappa light chain chimeric) (antibody, V domains shown)
VH: EVKLLESGGSLVQPGGSLKLSCAASGFDFSRYWMSWVRQAPGKGLEWIGEINPDSSTINYTPSLRDEFIISRDNAKNTLFLQMSKVISEDTALYYCARITSGYYFDYWGQGTTLTVSS
VL: DVVMTQTPLSLPVSLGDQASISCRSSQTIVYSNGNTYLYWYLQKPGQSPKLLIYRVSNRFPGVPDRFSGSGSGTDFTLKISGVEAEDMGVYYCFQGTHVPFTFGSGTKLEMK
notes: Chimeric: mouse VH and VL with human IgG1 heavy chain and kappa light chain constant regions
B5: Q14 (peptide)
peptide: QPDSGPPAAAPGHP
notes: also called peptide Q14
B6: 21-30 (peptide)
peptide: SSWGPRPRRY
notes: also called peptide 21-30
B7: 3-14 (peptide)
peptide: PAAAPGHPLAPG
notes: also called peptide 3-14

Assays:
[1] = molecular target: T2, B5/IgG4; assay: ELISA peptide competition: peptide preincubated with B5/IgG4, competitor hLAG3-mFc; capture on anti-human IgG, anti-mouse IgG-HRP
T2 construct: Chimeric: mouse VH and VL with human IgG4 heavy chain and kappa light chain constant regions; also called B5 (human IgG4 heavy chain and kappa light chain chimeric)
Experimental: (§1) FIGS. 5A-5D show the effect of competition peptides on LAG-3 binding to anti-LAG-3 mAbs. […] B5/IgG4 was preincubated with a competition peptide for 30 minutes. Then human LAG-3 extracellular domain (ECD) fused to mouse Fc (hLAG3-mFc) was added (the final peptide concentration was 600-fold that of hLAG3-mFc) and the mixture was incubated for 60 minutes before being added to an ELISA plate coated with anti-human IgG. The incubation was carried out at 4° C. overnight. After washing, the hLAG3-mFc bound to the immobilized B5/IgG4 on the ELISA plate was detected by adding anti-mouse IgG conjugated to horseradish peroxidase (HRP) and incubating for 60 minutes. Then, after washing, the ELISA was developed using One-step Detection Solution and measured as the absorbance at 450 nm.
(§2) Anti-human IgG in carbonate coating buffer was coated on an ELISA plate at 4° C. (50 μL/well at 1 μg/mL) overnight. In each well of a separate plate, a chimeric version of a given anti-LAG-3 mAb (50 μL/well at 1.4 nM) and a competition peptide (50 μL/well at various concentrations as indicated in the figures) were mixed and incubated for 30 minutes at room temperature. Then human LAG-3 extracellular domain (ECD) fused to mouse Fc (hLAG3-mFc) was added to each well (50 μL/well at 2 nM) and the final mixture was incubated at room temperature for 60 minutes before added to the ELISA plate (50 μL/well) for another 60-minute incubation. The final incubation after adding the mixture to the ELISA plate was also performed at 4° C. overnight in some assays. The plate was washed and the binding of hLAG3-mFc to the immobilized anti-LAG-3 mAb was detected by adding anti-mouse IgG conjugated to horseradish peroxidase ([…]) (ThermoFisher Scientific, Cat#: A16084; Waltham, Mass.) and incubating for 60 minutes.

[2] = molecular target: B4; assay: ELISA peptide competition: peptide preincubated with chimeric IgG1 B12, competitor hLAG3-mFc; capture on anti-human IgG, anti-mouse IgG-HRP
Experimental: as §1, §2

[3] = molecular target: T3, B7/IgG4; assay: ELISA peptide competition: peptide preincubated with B7/IgG4, competitor hLAG3-mFc; final incubation 60 min at room temperature; anti-mouse IgG-HRP
T3 construct: Chimeric: mouse VH and VL with human IgG4 heavy chain and kappa light chain constant regions; also called B7 (human IgG4 heavy chain and kappa light chain chimeric)
Experimental: B5/IgG4 was preincubated with a competition peptide for 30 minutes. Then human LAG-3 extracellular domain (ECD) fused to mouse Fc (hLAG3-mFc) was added (the final peptide concentration was 600-fold that of hLAG3-mFc) and the mixture was incubated for 60 minutes before being added to an ELISA plate coated with anti-human IgG. The incubation was carried out at 4° C. overnight. After washing, the hLAG3-mFc bound to the immobilized B5/IgG4 on the ELISA plate was detected by adding anti-mouse IgG conjugated to horseradish peroxidase (HRP) and incubating for 60 minutes. Then, after washing, the ELISA was developed using One-step Detection Solution and measured as the absorbance at 450 nm.
The assay condition is the same as in FIG. 5A except that the final incubation of the mAb, the competition peptide, and hLAG3-mFc on the ELISA plate was performed at room temperature for 60 minutes instead of incubation at 4° C. overnight.
Anti-human IgG in carbonate coating buffer was coated on an ELISA plate at 4° C. (50 μL/well at 1 μg/mL) overnight. In each well of a separate plate, a chimeric version of a given anti-LAG-3 mAb (50 μL/well at 1.4 nM) and a competition peptide (50 μL/well at various concentrations as indicated in the figures) were mixed and incubated for 30 minutes at room temperature. Then human LAG-3 extracellular domain (ECD) fused to mouse Fc (hLAG3-mFc) was added to each well (50 μL/well at 2 nM) and the final mixture was incubated at room temperature for 60 minutes before added to the ELISA plate (50 μL/well) for another 60-minute incubation.

[4] = molecular target: T1, human LAG-3(ECD)-mFc; assay: ELISA: chimeric IgG1 B12 with hLAG3-mFc in solution, captured on anti-human IgG, anti-mouse IgG-HRP
Experimental: as §1
Anti-human IgG in carbonate coating buffer was coated on an ELISA plate at 4° C. (50 μL/well at 1 μg/mL) overnight. […] The plate was washed and the binding of hLAG3-mFc to the immobilized anti-LAG-3 mAb was detected by adding anti-mouse IgG conjugated to horseradish peroxidase ([…]) (ThermoFisher Scientific, Cat#: A16084; Waltham, Mass.) and incubating for 60 minutes.

[5] = molecular target: T4, BG29 (human IgG4 heavy chain and kappa light chain chimeric); assay: ELISA peptide competition: peptide preincubated with chimeric IgG4 BG29, competitor hLAG3-mFc; peptide at 200-fold hLAG3-mFc; capture on anti-human IgG, anti-mouse IgG-HRP
T4 construct: Chimeric: mouse VH and VL with human IgG4 heavy chain and kappa light chain constant regions; also called chimeric BG29
Experimental: as §1, §2

[6] = molecular target: B4; assay: ELISA peptide competition: peptide preincubated with chimeric IgG1 B12, competitor hLAG3-mFc; peptide at 600-fold hLAG3-mFc; capture on anti-human IgG, anti-mouse IgG-HRP
Experimental: as §1, §2

T3 sequence (VH, as listed by the source): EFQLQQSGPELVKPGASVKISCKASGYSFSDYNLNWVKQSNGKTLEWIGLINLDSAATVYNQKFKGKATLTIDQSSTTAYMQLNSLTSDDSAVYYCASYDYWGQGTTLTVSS
T4 sequence (VH, as listed by the source, chain 1 of 2): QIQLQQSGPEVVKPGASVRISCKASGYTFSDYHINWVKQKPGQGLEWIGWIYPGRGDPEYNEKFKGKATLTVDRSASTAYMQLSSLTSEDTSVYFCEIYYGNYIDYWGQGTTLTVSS
T4 sequence (VL, as listed by the source, chain 2 of 2): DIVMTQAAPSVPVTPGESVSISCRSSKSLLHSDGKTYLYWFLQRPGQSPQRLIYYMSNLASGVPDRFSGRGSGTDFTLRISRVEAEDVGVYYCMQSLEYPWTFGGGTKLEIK

Binder	binding result [1]	binding result [3]	other results
B1	no binding (tested: 600-fold hLAG3-mFc)		binding result [2]: no binding (tested: 600-fold hLAG3-mFc)
B2		no binding (tested: 600-fold hLAG3-mFc)	
B3		no binding (tested: 600-fold hLAG3-mFc)	
B4			binding result [4]: binds
B5	no binding (tested: 600-fold hLAG3-mFc)		binding result [2]: no binding (tested: 600-fold hLAG3-mFc)
B6		no binding (tested: 600-fold hLAG3-mFc)	
B7	no binding (tested: 600-fold hLAG3-mFc)		binding result [5]: binds; binding result [6]: binds
